The values below come from the supplement of paper PMC5998384.

Data set [1] concerns HeLa Kyoto. As to the kind of experiment: thermal stability score vs G1/S (z-score of summed log2 fold changes over temperatures); higher = more thermally stable than in G1/S.
Data set [2] concerns HeLa Kyoto. Description: solubility in G1/S (NP-40 vs SDS abundance) (log2 ratio); higher = more soluble. The following applies: cell cycle stage: G1/S.
Data set [3] concerns HeLa Kyoto. As to the kind of experiment: solubility change mitosis vs G1/S (difference of NP-40 vs SDS log2 ratios) (log2 ratio difference); higher = more soluble in mitosis.
Setting [4] is: cell cycle stage: early G1 (4.5 h after nocodazole release).
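Wherever solubility change mitosis vs G1/S (difference of NP-40 vs SDS log2 ratios) is given: synchronized HeLa Kyoto cells (double thymidine block for G1/S, nocodazole release for mitosis), protein amounts in NP-40 versus SDS lysates quantified by mass spectrometry, three biological replicates.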
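Wherever solubility in G1/S (NP-40 vs SDS abundance) is given: HeLa Kyoto cells arrested at G1/S by double thymidine block, proteins quantified by TMT10plex mass spectrometry in mild NP-40 versus SDS extracts, three biological replicates.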
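Wherever thermal stability score vs G1/S (z-score of summed log2 fold changes over temperatures) is given: synchronized HeLa Kyoto cells, proteins quantified by TMT10plex mass spectrometry, three biological replicates, mitosis taken 0.5 h after nocodazole release, G1/S directly after double thymidine block.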

As to “MPTNFTVVPVEAHADGGGDETAERTEAPGTPEGPEPERPSPGDGNPRENSPFLNNVEVEQESFFEGKNMALFEEEMDSNPMVSSLLNKLANYTNLSQGVVEHEEDEESRRREAKAPRMGTFIGVYLPCLQNILGVILFLRLTWIVGVAGVLESFLIVAMCCTCTMLTAISMSAIATNGVVPAGGSYYMISRSLGPEFGGAVGLCFYLGTTFAGAMYILGTIEIFLTYISPGAAIFQAEAAGGEAAAMLHNMRVYGTCTLVLMALVVFVGVKYVNKLALVFLACVVLSILAIYAGVIKSAFDPPDIPVCLLGNRTLSRRSFDACVKAYGIHNNSATSALWGLFCNGSQPSAACDEYFIQNNVTEIQGIPGAASGVFLENLWSTYAHAGAFVEKKGVPSVPVAEESRASALPYVLTDIAASFTLLVGIYFPSVTGIMAGSNRSGDLKDAQKSIPTGTILAIVTTSFIYLSCIVLFGACIEGVVLRDKFGEALQGNLVIGMLAWPSPWVIVIGSFFSTCGAGLQSLTGAPRLLQAIARDGIVPFLQVFGHGKANGEPTWALLLTVLICETGILIASLDSVAPILSMFFLMCYLFVNLACAVQTLLRTPNWRPRFKFYHWTLSFLGMSLCLALMFICSWYYALSAMLIAGCIYKYIEYRGAEKEWGDGIRGLSLNAARYALLRVEHGPPHTKNWRPQVLVMLNLDAEQAVKHPRLLSFTSQLKAGKGLTIVGSVLEGTYLDKHMEAQRAEENIRSLMSTEKTKGFCQLVVSSSLRDGMSHLIQSAGLGGLKHNTVLMAWPASWKQEDNPFSWKNFVDTVRDTTAAHQALLVAKNVDSFPQNQERFGGGHIDVWWIVHDGGMLMLLPFLLRQHKVWRKCRMRIFTVAQVDDNSIQMKKDLQMFLYHLRISAEVEVVEMVENDISAFTYERTLMMEQRSQMLKQMQLSKNEQEREAQLIHDRNTASHTAAAARTQAPPTPDKVQMTWTREKLIAEKYRSRDTSLSGFKDLFSMKPDQSNVRRMHTAVKLNGVVLNKSQDAQLVLLNMPGPPKNRQGDENYMEFLEVLTEGLNRVLLVRGGGREVITIYS [SLC12A7]”, the thermal stability score in the data set on HeLa Kyoto [1] (setting [4]) was 0.109; with HeLa Kyoto [1] (cell cycle stage: mitosis), 0.0218. The “solubility in G1/S (log2)” value in the data set with HeLa Kyoto [2] was -0.103. Besides, the “solubility change mitosis (log2)” value in the data set on HeLa Kyoto [3] was -0.0793.

For the sequence “MAGENFATPFHGHVGRGAFSDVYEPAEDTFLLLDALEAAAAELAGVEICLEVGSGSGVVSAFLASMIGPQALYMCTDINPEAAACTLETARCNKVHIQPVITDLVKGLLPRLTEKVDLLVFNPPYVVTPPQEVGSHGIEAAWAGGRNGREVMDRFFPLVPDLLSPRGLFYLVTIKENNPEEILKIMKTKGLQGTTALSRQAGQETLSVLKFTKS [N6AMT1]”, the thermal stability score in the data set with HeLa Kyoto [1] (setting [4]) worked out at 0.341; with HeLa Kyoto [1] (cell cycle stage: mitosis) it was 0.273. Further, the “solubility in G1/S (log2)” value in the data set on HeLa Kyoto [2] stood at 0.483. For the same sequence, the “solubility change mitosis (log2)” value in the data set on HeLa Kyoto [3] amounted to 0.0523.

As for “MTTAQRDSLLWKLAGLLRESGDVVLSGCSTLSLLTPTLQQLNHVFELHLGPWGPGQTGFVALPSHPADSPVILQLQFLFDVLQKTLSLKLVHVAGPGPTGPIKIFPFKSLRHLELRGVPLHCLHGLRGIYSQLETLICSRSLQALEELLSACGGDFCSALPWLALLSANFSYNALTALDSSLRLLSALRFLNLSHNQVQDCQGFLMDLCELHHLDISYNRLHLVPRMGPSGAALGVLILRGNELRSLHGLEQLRNLRHLDLAYNLLEGHRELSPLWLLAELRKLYLEGNPLWFHPEHRAATAQYLSPRARDAATGFLLDGKVLSLTDFQTHTSLGLSPMGPPLPWPVGSTPETSGGPDLSDSLSSGGVVTQPLLHKVKSRVRVRRASISEPSDTDPEPRTLNPSPAGWFVQQHPELELMSSFRERFGRNWLQYRSHLEPSGNPLPATPTTSAPSAPPASSQGPDTAPRPSPPQEEARGPQESPQKMSEEVRAEPQEEEEEKEGKEEKEEGEMVEQGEEEAGEEEEEEQDQKEVEAELCRPLLVCPLEGPEGVRGRECFLRVTSAHLFEVELQAARTLERLELQSLEAAEIEPEAQAQRSPRPTGSDLLPGAPILSLRFSYICPDRQLRRYLVLEPDAHAAVQELLAVLTPVTNVAREQLGEARDLLLGRFQCLRCGHEFKPEEPRMGLDSEEGWRPLFQKTESPAVCPNCGSDHVVLLAVSRGTPNRERKQGEQSLAPSPSASPVCHPPGHGDHLDRAKNSPPQAPSTRDHGSWSLSPPPERCGLRSVDHRLRLFLDVEVFSDAQEEFQCCLKVPVALAGHTGEFMCLVVVSDRRLYLLKVTGEMREPPASWLQLTLAVPLQDLSGIELGLAGQSLRLEWAAGAGRCVLLPRDARHCRAFLEELLDVLQSLPPAWRNCVSATEEEVTPQHRLWPLLEKDSSLEARQFFYLRAFLVEGPSTCLVSLLLTPSTLFLLDEDAAGSPAEPSPPAASGEASEKVPPSGPGPAVRVREQQPLSSLSSVLLYRSAPEDLRLLFYDEVSRLESFWALRVVCQEQLTALLAWIREPWEELFSIGLRTVIQEALALDR [STK11IP]”, the thermal stability score in the data set with HeLa Kyoto [1] (setting [4]) is -0.272; in the data set on HeLa Kyoto [1] (cell cycle stage: mitosis) it was -1.04. Besides, in the data set with HeLa Kyoto [2], the “solubility in G1/S (log2)” value was -0.0528. The “solubility change mitosis (log2)” value in the data set with HeLa Kyoto [3] is -0.0941.

On to “MPEEAGFPPAKRFRPGSGPPSRAGSFPPGRQVVMLLTAGSGGRGGGGGRRQQPPLAQPSASPYPEAVELQRRSLPIFQARGQLLAQLRNLDNAVLIGETGSGKTTQIPQYLYEGGISRQGIIAVTQPRRVAAISLATRVSDEKRTELGKLVGYTVRFDDVTSEDTRIKFLTDGMLLREAISDSLLRKYSCVILDEAHERTIHTDVLFGVVKAAQKRRKELGKLPLKVIVMSATMDVDLFSQYFNGAPVLYLEGRQHPIQVFYTKQPQNDYLHAALVSVFQIHQEAPSSQDILVFLTGQEEIEAMSKTCRDIAKHLPDGCPAMLVLPLYASLPYAQQLRVFQGAPKGYRKVIISTNIAETSITITGIKYVVDTGMVKAKKYNPDSGLEVLAVQRVSKTQAWQRTGRAGREDSGICYRLYTEDEFEKFDKMTVPEIQRCNLASVMLQLLAMKVPNVLTFDFMSKPSPDHIQAAIAQLDLLGALEHKDDQLTLTPMGRKMAAFPLEPKFAKTILMSPKFHCTEEILTIVSLLSVDSVLHNPPSRREEVQGVRKKFISSEGDHMTLLNIYRTFKNLGGNKDWCKENFVNSKNMTLVAEVRAQLRDICLKMSMPIASSRGDVESVRRCLAHSLFMSTAELQPDGTYATTDTHQPVAIHPSSVLFHCKPACVVYTELLYTNKCYMRDLCVIDAQWLYEAAPEYFRRKLRTARN [DHX33]”, for which the thermal stability score in the data set with HeLa Kyoto [1] (setting [4]) was found to be 0.61; in the data set with HeLa Kyoto [1] (cell cycle stage: mitosis), 0.974. Besides, the “solubility in G1/S (log2)” value in the data set with HeLa Kyoto [2] is -1.03. Further, the “solubility change mitosis (log2)” value in the data set with HeLa Kyoto [3] was determined as 0.463.

For the sequence “MEDPSEPDRLASADGGSPEEEEDGEREPLLPRIAWAHPRRGAPGSAVRLLDAAGEEGEAGDEELPLPPGDVGVSRSSSAELDRSRPAVSVTIGTSEMNAFLDDPEFADIMLRAEQAIEVGIFPERISQGSSGSYFVKDPKRKIIGVFKPKSEEPYGQLNPKWTKYVHKVCCPCCFGRGCLIPNQGYLSEAGAYLVDNKLHLSIVPKTKVVWLVSETFNYNAIDRAKSRGKKYALEKVPKVGRKFHRIGLPPKIGSFQLFVEGYKEAEYWLRKFEADPLPENIRKQFQSQFERLVILDYIIRNTDRGNDNWLVRYEKQKCEKEIDHKESKWIDDEEFLIKIAAIDNGLAFPFKHPDEWRAYPFHWAWLPQAKVPFSEEIRNLILPYISDMNFVQDLCEDLYELFKTDKGFDKATFESQMSVMRGQILNLTQALRDGKSPFQLVQIPCVIVERSQGGSQGRIVHLSNSFTQTVNCRKPFFSSW [PI4K2B]”, the thermal stability score in the data set on HeLa Kyoto [1] (setting [4]) stood at 0.385; with HeLa Kyoto [1] (cell cycle stage: mitosis) it was 0.874. The “solubility in G1/S (log2)” value with HeLa Kyoto [2] turned out to be 0.198. Moreover, in the data set with HeLa Kyoto [3], the “solubility change mitosis (log2)” value is -0.206.

Turning to “MPLVVFCGLPYSGKSRRAEELRVALAAEGRAVYVVDDAAVLGAEDPAVYGDSAREKALRGALRASVERRLSRHDVVILDSLNYIKGFRYELYCLARAARTPLCLVYCVRPGGPIAGPQVAGANENPGRNVSVSWRPRAEEDGRAQAAGSSVLRELHTADSVVNGSAQADVPKELEREESGAAESPALVTPDSEKSAKHGSGAFYSPELLEALTLRFEAPDSRNRWDRPLFTLVGLEEPLPLAGIRSALFENRAPPPHQSTQSQPLASGSFLHQLDQVTSQVLAGLMEAQKSAVPGDLLTLPGTTEHLRFTRPLTMAELSRLRRQFISYTKMHPNNENLPQLANMFLQYLSQSLH [KTI12]”, the thermal stability score in the data set on HeLa Kyoto [1] (setting [4]) was -1.22; in the data set on HeLa Kyoto [1] (cell cycle stage: mitosis), -1.26. Moreover, the “solubility in G1/S (log2)” value in the data set with HeLa Kyoto [2] was 0.526. The “solubility change mitosis (log2)” value in the data set with HeLa Kyoto [3] was -0.00671.
